Among the data in the Immune Epitope Database (IEDB) are Kd values, retold here.

The target of test [1] is HLA-B*44:02. Description: IEDB peptide-MHC binding, purified MHC/competitive/radioactivity; filed as Kd, often an IC50 or EC50 that approximates it; ≥ and ≤ were set here for values at or beyond the usual limits of such assays.
For test [2], the target named is HLA-A*26:01. The test is described as above.
The target in test [3] is HLA-B*44:03. Described as above.
The target in test [4] is HLA-A*23:01. Described as above.
Test [5] concerns the target HLA-A*24:02. The test is described as above.
The target of test [6] is HLA-A*01:01. Described as above.
Test [7] concerns the target HLA-A*29:02. The test is described as above.
Test [8] concerns the target HLA-B*58:01. As to the kind of experiment: IEDB peptide-MHC binding, purified MHC/direct/fluorescence; filed as Kd, often an IC50 or EC50 that approximates it; ≥ and ≤ were set here for values at or beyond the usual limits of such assays. As to conditions: source organism: Mycobacterium tuberculosis variant bovis.
Test [9] concerns the target HLA-A*02:02. As to the kind of experiment: IEDB peptide-MHC binding, purified MHC/competitive/radioactivity; filed as Kd, often an IC50 or EC50 that approximates it; ≥ and ≤ were set here for values at or beyond the usual limits of such assays.
Test [10] deals with HLA-A*02:03. The test is described as above.
Test [11] addresses HLA-A*02:06. The test is described as above.
Test [12] has as its target HLA-A*30:02. The test is described as above.
[13] abbreviates: source organism: Dengue virus 3 Martinique/1243/1999.
Setting [14] is: source organism: Dengue virus 3 Sri Lanka/1266/2000.
Setting [15] is: source organism: Dengue virus 2 Jamaica/1409/1983.
[16] abbreviates: source organism: Dengue virus 4 Philippines/H241/1956.
[17] abbreviates: source organism: Mammarenavirus whitewaterense.
[18] abbreviates: source organism: Mammarenavirus guanaritoense.
Setting [19] is: source organism: Vaccinia virus WR.
[20] abbreviates: source organism: SARS coronavirus Tor2.

In general, Kd refers to the free concentration of one partner at which half of the binding sites on the other are occupied at equilibrium, for simple one-to-one binding. For NEEKITQQM, the dissociation constant Kd in test [1] (setting [13]) stood at 578 nM.
For NTIFTLTVAW, the Kd is 8780 nM in test [2] (setting [14]), 7260 nM in test [1] (setting [14]) and not below 23100 nM in [3] (setting [14]).
NYADRRWCF: the dissociation constant Kd in test [4] (setting [15]) worked out at 50.6 nM; in [5] (setting [15]), 12.2 nM.
For the sequence PFDTRQMLFY, the dissociation constant Kd in [6] (source organism: Homo sapiens) was determined as 252 nM.
For the sequence PWLSSKPEF, in test [4] (setting [16]), the Kd stood at 116 nM.
PYVPMPCMI: the Kd was 41.7 nM in [4] (setting [17]), 57.4 nM in test [5] (setting [17]) and not below 60700 nM in [7] (setting [17]).
In the case of QEHETSWHYD, the dissociation constant Kd in test [1] (setting [15]) worked out at 158 nM; in test [3] (setting [15]), 746 nM.
RDTAEAAKW showed a Kd in test [8] of 1590 nM.
For the sequence RYPLTFGWCF, the Kd in test [5] (source organism: HIV-1 M:B_ARV2/SF2) was found to be 17 nM.
Turning to SELETPNLAE, the Kd in test [3] (source organism: Dengue virus 1 Singapore/S275/1990) was 6330 nM.
Turning to SEMGANFRAG, the results for the Kd in [1] (setting [16]) and in test [3] (setting [16]) were 95 nM and 868 nM, respectively.
On to SFKVGHHTNF, for which the Kd in test [4] (setting [18]) was found to be 1320 nM; in [5] (setting [18]), 11000 nM; in test [7] (setting [18]), 814 nM.
SYKIGHHVEL: the Kd in test [4] (setting [17]) is 15900 nM; in test [5] (setting [17]) it was 12900 nM; in test [7] (setting [17]), not below 56900 nM.
In the case of TIESAKTKI, the Kd in test [9] (setting [19]) is 16300 nM; in test [10] (setting [19]), not below 54100 nM; in [11] (setting [19]), not below 51100 nM.
On the same counts, the results for TQFNFNGHT are not below 43300 nM, 14400 nM and not below 10000 nM.
Take TQSGALEVLM: the figures for the Kd in [9] (setting [19]), in test [10] (setting [19]) and in test [11] (setting [19]) were 836 nM, 15400 nM and 2230 nM, respectively.
As to TTEAILPEY, the results for the Kd in test [6] (setting [13]), in test [2] (setting [13]) and in test [12] (setting [13]) were 30.6 nM, 1180 nM and not below 54300 nM, respectively.
TVDVRNIVT: the Kd in [9] (setting [19]) is 13400 nM; in test [10] (setting [19]), 13100 nM; in test [11] (setting [19]), not below 54000 nM.
Consider TWAKNIHTAI, for which the Kd in [5] (setting [16]) is 2000 nM.
In the case of VAKCCSKTNT, the Kd in test [9] (setting [19]) is 14700 nM; in test [10] (setting [19]), not below 21700 nM; in test [11] (setting [19]) it was not below 40800 nM.
As to VLVGVVTLY, the results for the Kd in [2] (setting [15]) and in [12] (setting [15]) were 13600 nM and 58.3 nM, respectively.
Regarding VTGSYNLVDT, the Kd in test [9] (setting [19]) was not below 70000 nM; in test [10] (setting [19]), not below 70400 nM; in [11] (setting [19]) it was not below 69800 nM.
As for VTTWENVPYL, the Kd in test [6] (setting [13]) amounted to 11300 nM.
With YCHGILLKDV, the Kd in test [9] (setting [17]) was not below 70000 nM; in test [10] (setting [17]) it was 13000 nM; in [11] (setting [17]), 14900 nM.
Turning to YLMCLSPLM, the Kd in test [9] (setting [20]) was found to be 0.137 nM; in test [10] (setting [20]), 0.297 nM; in test [11] (setting [20]), 1.12 nM.
As for YLYTEYFLFL, the Kd in [9] (setting [19]) is 0.684 nM; in test [10] (setting [19]) it was 1.32 nM; in test [11] (setting [19]), 0.841 nM.
For YVIGLLPQS, the values for the equilibrium dissociation constant (Kd) in test [9] (setting [18]), in [10] (setting [18]) and in [11] (setting [18]) were not below 77700 nM, not below 78100 nM and not below 48000 nM, respectively.
Consider YVILKDPRIA, for which the dissociation constant Kd in [9] (setting [19]) amounted to 6010 nM; in test [10] (setting [19]), 355 nM; in test [11] (setting [19]), 1900 nM.
In the case of YVSVMNFIPI, the Kd in test [9] (setting [19]) is 341 nM; in test [10] (setting [19]) it was 152 nM; in [11] (setting [19]), 0.109 nM.
